Patent publication US11141492B2, “Anticancer combinations” (City of Hope, priority 2013, dated 2021)

Tests used:
KPC-luc tumors = assay: Orthotopic KPC-luc pancreatic tumor model, intravital imaging (IVIS); type: in vivo, C57BL/6 mice; conditions: PEGPH20 4.5 mg/kg (~90 ug/mouse) i.v. day 7; shIDO-ST 5×10^6 cfu/mouse i.v. day 8 (alone: days 8 and 12); n=3
Experimental: To determine the effects of shIDO-ST and PEGPH20™, nine C57BL/6 mice were injected orthotopically (in the pancreas) with 5×10^5 KPC-luc cells. Three small groups (n=3) were created: shIDO-ST alone, PEGPH20™ alone, and shIDO-ST with PEGPH20™. The shIDO-ST alone group received shIDO-ST at a dose of 5×10^6 cfu/mouse through intravenous (i.v.) injection on days 8 and 12. PEGPH20™ alone group received PEGPH20™ at a dose of 4.5 mg/kg (˜90 ug/mouse) on day 7 through i.v. injection. The combination (PEGPH20™ with shIDO-ST) group received PEGPH20™ at 4.5 mg/kg on day 7 followed by treatment with shIDO-ST on day 8 at 5×10^6 cfu/mouse. Mice were imaged using an intravital imaging system (IVIS) at indicated time points after tumor cell implantation. […]
Titration of combination treatment with shIDO-ST and PEGPH20™ was performed to reduce the toxicity observed in initial experiment (FIG. 2). […] Photons emitted from mice imaged in FIG. 2 were quantitated using Living Image® software.
Due to the sensitivity of 7 day KPC-luc tumors to the combination PEGPH20™ and […] treatment (FIG. 2), treatment of implanted KPC-luc tumors was delayed to day 14. […] Doses (previously determined from titration studies described in FIG. 2) consisted of 45 ug of PEGPH20™ followed by 5×10^6 cfu/mouse of shIDO-ST or shScr-ST. […] Photons emitted from mice imaged in FIG. 4 were quantitated using Living Image® software. […]

hyaluronan = assay: Hyaluronan staining of KPC-luc tumor sections; type: in vivo, mice; conditions: forty-eight hours after treatment; 14 day orthotopic tumors
[1] = test system: vessels within the tumor mass; assay: Anti-CD31 staining of vessels within the tumor mass; type: in vivo, mice; conditions: 14 day tumors, versus untreated (majority of closed vessels)
Excerpt: Sections from 14 day tumors of mice untreated or treated with PEGPH20 were stained with anti-CD31 antibody to locate cross sections of vessels within the tumor mass. FITC-conjugated secondary specific to CD31 primary and DAPI staining were visualized by fluorescence microscopy.

B1: PEGPH20™: pegylated recombinant human hyaluronidase PH-20 (Halozyme, Inc.) (protein, listed as Homo Sapiens)
chain: MGVLKFKHIFFRSFVKSSGVSQIVFTFLLIPCCLTLNFRAPPVIPNVPFLWAWNAPSEFCLGKFDEPLDMSLFSFIGSPRINATGQGVTIFYVDRLGYYPYIDSITGVTVNGGIPQKISLQDHLDKAKKDITFYMPVDNLGMAVIDWEEWRPTWARNWKPKDVYKNRSIELVQQQNVQLSLTEATEKAKQEFEKAGKDFLVETIKLGKLLRPNHLWGYYLFPDCYNHHYKKPGYNGSCFNVEIKRNDDLSWLWNESTALYPSIYLNTQQSPVAATLYVRNRVREAIRVSKIPDAKSPLPVFAYTRIVFTDQVLKFLSQDELVYTFGETVALGASGIVIWGTLSIMRSMKSCLLLDNYMETILNPYIINVTLAAKMCSQVLCQEQGVCIRKNWNSSDYLHLNPDNFAIQLEKGGKFTVRGKPTLEDLEQFSEKFYCSCYSTLSCKEKADVKDTDAVDVCIADGVCIDAFLKPPMETEEPQIFYNASPSTLSATMFIVSILFLIISSVASL
modifications: PEGylated
For B1, the “tumor growth by IVIS imaging” value (KPC-luc tumors) was “euthanized due to significantly large tumors”, the “hyaluronan in KPC-luc tumor tissue sections” value (hyaluronan) was “significant depletion of hyaluronan” and the “open vessels in tumors (CD31 staining)” value [1] was “Many more open vessels”.
